Changes are numbered by the printed parent chain. Numbers in names are those of the source.
B1: S25E: FoxM1 phosphorylated point mutant of the S25 residue, expressed by lentivirus in A549 cells (protein, listed as Homo sapiens)
chain: MKTSPRRPLILKRRRLPLPVQNAPEETSEEEPKRSPAQQESNQAEASKEVAESNSCKFPAGIKIINHPTMPNTQVVAIPNNANIHSIITALTAKGKESGSSGPNKFILISCGGAPTQPPGLRPQTQTSYDAKRTEVTLETLGPKPAARDVNLPRPPGALCEQKRETCDGEAAGCTINNSLSNIQWLRKMSSDGLGSRSIKQEMEEKENCHLEQRQVKVEEPSRPSASWQNSVSERPPYSYMAMIQFAINSTERKRMTLKDIYTWIEDHFPYFKHIAKPGWKNSIRHNLSLHDMFVRETSANGKVSFWTIHPSANRYLTLDQVFKQQQKRPNPELRRNMTIKTELPLGARRKMKPLLPRVSSYLVPIQFPVNQSLVLQPSVKVPLPLAASLMSSELARHSKRVRIAPKVLLAEEGIAPLSSAGPGKEEKLLFGEGFSPLLPVQTIKEEEIQPGEEMPHLARPIKVESPPLEEWPSPAPSFKEESSHSWEDSSQSPTPRPKKSYSGLRSPTRCVSEMLVIQHRERRERSRSRRKQHLLPPCVDEPELLFSEGPSTSRWAAELPFPADSSDPASQLSYSQEVGGPFKTPIKETLPISSTPSKSVLPRTPESWRLTPPAKVGGLDFSPVQTSQGASDPLPDPLGLMDLSTTPLQSAPPLESPQRLLSSEPLDLISVPFGNSSPSDIDVPKPGSPEPQVSGLAANRSLTEGLVLDTMNDSLSKILLDISFPGLDEDPLGPDNINWSQFIPELQ
B2: S25A: FoxM1 protein with Ser25 substituted with alanine, non-phosphorylated point mutant, expressed by lentivirus in A549 cells (protein)
chain: B1 chain with E25A
modifications: left off: a dimerising Fc or GST
notes: FoxM1 protein with Ser25 substituted with alanine, non-phosphorylated point mutant, expressed by lentivirus in A549 cells

Experiments:
A549 lung cancer cells [1] = assay: Transwell migration assay of A549 cells expressing FoxM1 WT or point mutants; assay type: cell-based; settings: for migration / motility of cancer cells (in words): Transwell migration assay, A549
Method: To examine the effects of FoxM1 WT, phosphorylation, and non-phosphorylated point mutants on the motility of cancer cells, the migration assay was performed in A549 lung cancer cells expressing mutant proteins.
Specifically, 5×10^4 cells of lung cancer cells A549 expressing each of WT, phosphorylation, and non-phosphorylated point mutant of FoxM1 were seeded in an 8.0 μm, 24 well insert, and the inserts were placed in a 24-well plate after medium with 10% fetal bovine serum (FBS) was dispensed in the 24-well plate. For the positive control, 0.5 ml of RPMI1640 (10% FBS) containing 5 ng/ml of TGF-β was used. After 72 hours from cell seeding, 500 μl of 4% paraformaldehyde was dispensed, washed three times with 1×PBS, and stained with 0.05% crystal violet solution for 5 minutes. After 5 minutes, the cells were washed five times with 1×PBS, and the staining intensity was measured using the Odyssey infrared imaging system.
Specifically, 5×10^4 cells of lung cancer cells A549 expressing control and FoxM1 WT were seeded in an 8.0 μm, 24 well insert, and the inserts were placed in a 24-well plate after medium with 10% fetal bovine serum (FBS) was dispensed in the 24-well plate. For the positive control, 0.5 ml of RPMI1640 (10% FBS) containing 5 ng/ml of TGF-β was added and used. After 72 hours from cell seeding, 500 μl of 4% paraformaldehyde was dispensed, washed three times with 1×PBS, and stained with 0.05% crystal violet solution for 5 minutes. After 5 minutes, the cells were washed five times with 1×PBS, and the staining intensity was measured using the Odyssey infrared imaging system.

A549 cancer cells = assay: Tail vein injection metastatic cancer animal model with A549 cells expressing FoxM1 mutants; assay type: in vivo, mice; settings: for cancer metastasis to lung and tumorigenesis (tumorigenicity): A549 cells expressing the mutant injected into tail vein of mice; for degree of cancer cell proliferation by H&E and Ki67 staining: lung tissue of injected mice
Method: To observe the tumorigenic potential of cancer cells in animal models, the present inventors aimed to evaluate the tumorigenicity-promoting and -suppressing effects of cancer cells by using cancer cells expressing phosphorylation and non-phosphorylated point mutants of FoxM1 S25 residue.
Specifically, A549 cancer cells (2×10^6 cells) stably expressing FoxM1 protein containing point mutations were diluted in PBS and injected into the tail vein of mice. The mice were raised for 8 weeks, and then laparotomy was performed to observe cancer cell metastasis and tumorigenesis in organs.

A549 lung cancer cells [2] = assay: Matrigel invasion assay of A549 cells expressing FoxM1 WT or point mutants; assay type: cell-based; settings: for invasion of cancer cells (in words): Matrigel invasion assay, A549
Method: To observe the effects of the WT, phosphorylation, and non-phosphorylated point mutants of FoxM1 proteins on the invasion of cancer cells, an invasion assay using Matrigel was performed in lung cancer cells A549 expressing these mutants.
Specifically, after completely dissolving Matrigel at 4° C. for 16-20 hours, Matrigel was diluted with cold serum-free RPMI 1640 (4° C.) to 1 mg/ml. 100 μl of Matrigel mixture (1 mg/ml) was added to an […] 24-well insert and solidified in a 37° C. incubator for 12-20 hours. 1×10^5 cells/well of lung cancer cells A549 expressing each WT, phosphorylation, and non-phosphorylated point mutant FoxM1 proteins were diluted in serum-free RPMI 1640 (36° C.) and dispensed onto the insert. 0.5 ml/well of warm RPMI 1640 (10% FBS) at 36° C. was dispensed to the insert. For the positive control group, 0.5 ml of RPMI 1640 (10% FBS) containing 5 ng/ml TGF-β at 36° C. was used. The medium was changed once every 3 days, and the degree of invasion was observed. On the 7th day, when sufficient cancer cell invasion was observed, the medium was removed, washed with 1×PBS, and the cells inside the insert were scraped with a cotton swab and washed with 1×PBS to remove any remaining cells and Matrigel inside the insert. 500 μl of 4% paraformaldehyde was dispensed into the 24 wells with the outer surface of the insert, incubated at room temperature for 5 minutes, washed three times with 1×PBS, and stained with 0.05% crystal violet solution for 5 minutes. After 5 minutes, it was washed five times with 1×PBS and dissolved in DMSO. The degree of staining was determined by measuring the absorbance at 590 nm.
Specifically, Matrigel was completely solved at 4° C. for 16-20 hours and diluted to 1 mg/ml in cold serum free RPMI 1640 (4° C.). 100 μl of Matrigel mixture (1 mg/ml) was added into […] 24-well insert and solidified in a 37° C. incubator for 12-20 hours. A549 lung cancer cells expressing Mock or the experimental group FoxM1 WT protein were dispensed on the solidified Matrigel insert with 1×10^5 cells/well diluted in serum free RPMI 1640 (36° C.), and 0.5 ml/well of 36° C. of warm RPMI 1640 (10% FBS) were dispensed. For the positive control group, 0.5 ml of 36° C. RPMI 1640 (10% FBS) containing 5 ng/ml of TGF-β were dispensed. Then, once in 3 days, the medium was changed, and the level of invasion was observed. […] 500 ul of 4% paraformaldehyde was dispensed into 24 wells where the outer surface of the insert was placed, incubated for 5 minutes at room temperature, washed three times with 1×PBS, and stained with 0.05% crystal-violet solution for 5 minutes. After 5 minutes, they were washed 5 times with 1×PBS, and the degree of staining was dissolved in DMSO, and the wavelength was measured at 590 nm.

A549 lung cancer cells [3] = assay: Wound healing assay of A549 cells expressing FoxM1 phosphorylated point mutants; assay type: cell-based; settings: distance in the control group at 72 h set to 0%
Method: To observe the effects of phosphorylation point mutations on the motility of cancer cells, a wound healing assay was performed in lung cancer cells A549 expressing FoxM1 wild type (WT), phosphorylated point mutants S25E, S361E, and S715E, and a simultaneous triple-point mutation EEE protein.
Specifically, cells expressing the gene of FoxM1 point mutant by the lentivirus system were seeded into 6-well plates at 1×10^5 cells/well each. 24 hours after cell seeding, scratches were made at regular intervals using a 200 μl-pipette tip. In addition, A549 cells treated with mock as a negative control (Mock) and 5 ng/ml of TGF-β as a positive control were used. […] In addition, the distance in the control group at 72 h was set to 0%, and the relative distance was represented as a bar graph (FIG. 4G).

A549 cells = assay: M2d-inducing factor mRNA in A549 cells after co-culture with THP-1 cells; assay type: cell-based; settings: co-culture with THP-1 48 hours
Method: In addition, after co-culturing of human monocyte THP-1 cells and cell groups over-expressing FoxM1 point mutations for 48 hours under the conditions where the previous experiments were performed, the mRNA expression levels of M2d-inducing factors IL4, IL6, IL10, and VEGFA in A549 cells expressing FoxM1 S25E were analyzed. […] The amounts of TGFB1 and VEGFA proteins in the medium cultured for 48 h with A549 cells (4×10^4 cells/ml) expressing FoxM1 variants were measured by ELISA.

Molecule	migration / motility of cancer cells (in words) (A549 lung cancer cells [1])	cancer cell migration (stained intensity), increase compared to the control group (A549 lung cancer cells [1]; Transwell, 72 hours, control set to 1, TGF-β 5 ng/ml positive control)	staining intensity value compared to the control group (A549 lung cancer cells [1]; migration assay, 72 hours, control set to 1)	cancer metastasis to lung and tumorigenesis (tumorigenicity) (A549 cancer cells)	cancer metastasis to lung and tumorigenesis (tumorigenicity) (A549 cancer cells; listed as S325E)	degree of cancer cell proliferation by H&E and Ki67 staining (A549 cancer cells)	invasion of cancer cells (in words) (A549 lung cancer cells [2])	absorbance value at 590 nm (invasion) compared to the control group (A549 lung cancer cells [2]; Matrigel, 7th day, control set to 1) [times]	relative healing distance (motility) at 72 h (A549 lung cancer cells [3]) [%]	mRNA expression level of IL4 in A549 cells (A549 cells) [folds]	mRNA expression level of IL6 in A549 cells (A549 cells) [folds]	mRNA expression level of IL10 in A549 cells (A549 cells) [folds]	mRNA expression level of VEGFA in A549 cells (A549 cells) [folds]	mRNA expression level, fifth value printed (factor not named) (A549 cells) [folds]	migration / motility of cancer cells (in words) (A549 lung cancer cells [1]; listed as S25 non-phosphorylated point mutant of FoxM1)	cancer metastasis to lung and tumorigenesis (tumorigenicity) (A549 cancer cells; listed as FoxM1 protein containing the non-phosphorylation point mutations)	cancer metastasis to lung and tumorigenesis (tumorigenicity) (A549 cancer cells; listed as non-phosphorylated point mutant of FoxM1)	invasion of cancer cells (in words) (A549 lung cancer cells [2]; listed as FoxM1 non-phosphorylated point mutant)	invasion of cancer cells (in words) (A549 lung cancer cells [2]; listed as non-phosphorylated point mutant protein of FoxM1)
B1	promoted the motility of lung cancer cells	approximately 6 fold	up to 6 times	significantly higher	highest tumorigenicity	high	highest cancer cell invasion	~40	43	1.8	1.8	2.2	2.5	2.5	–	–	–	–	–
B2	reduced	–	–	more effective in reducing the metastasis and suppressing the tumorigenic potential	–	significantly low	–	–	–	–	–	–	–	–	effectively suppressed the motility of lung cancer cells	relatively low	no tumors were formed	lower relative absorbance	reduced
